# Data published in IntAct's records for PubMed 35512704.
# B1: Mothers against decapentaplegic homolog 4 (Homo sapiens), Q13485 (parent)
# chain: MDNMSITNTPTSNDACLSIVHSLMCHRQGGESETFAKRAIESLVKKLKEKKDELDSLITAITTNGAHPSKCVTIQRTLDGRLQVAGRKGFPHVIYARLWRWPDLHKNELKHVKYCQYAFDLKCDSVCVNPYHYERVVSPGIDLSGLTLQSNAPSSMMVKDEYVHDFEGQPSLSTEGHSIQTIQHPPSNRASTETYSTPALLAPSESNATSTANFPNIPVASTSQPASILGGSHSEGLLQIASGPQPGQQQNGFTGQPATYHHNSTTTWTGSRTAPYTPNLPHHQNGHLQHHPPMPPHPGHYWPVHNELAFQPPISNHPAPEYWCSIAYFEMDVQVGETFKVPSSCPIVTVDGYVDPSGGDRFCLGQLSNVHRTEAIERARLHIGKGVQLECKGEGDVWVRCLSDHAVFVQSYYLDREAGRAPGDAVHKIYPSAYIKVFDLRQCHRQMQQQAATAQAAAAAQAAAVAGNIPGPGSVGGIAPAISLSAAAGIGVDDLRRLCILRMSFVKGWGPDYPRQSIKETPCWIEIHLHRALQLLDEVLHTMPIADPQPLD
# partner: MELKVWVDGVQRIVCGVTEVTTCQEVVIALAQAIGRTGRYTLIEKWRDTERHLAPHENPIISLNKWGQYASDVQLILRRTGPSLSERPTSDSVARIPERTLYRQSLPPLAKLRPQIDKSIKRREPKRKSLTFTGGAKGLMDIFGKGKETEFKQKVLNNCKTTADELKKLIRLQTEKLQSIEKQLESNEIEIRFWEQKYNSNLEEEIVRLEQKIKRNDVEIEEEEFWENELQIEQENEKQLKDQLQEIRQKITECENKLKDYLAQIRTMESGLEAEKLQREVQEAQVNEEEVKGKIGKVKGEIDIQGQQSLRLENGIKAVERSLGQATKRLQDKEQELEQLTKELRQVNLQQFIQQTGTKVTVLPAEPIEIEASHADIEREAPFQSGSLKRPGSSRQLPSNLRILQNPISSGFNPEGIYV
# B2: Mothers against decapentaplegic homolog 4 (Homo sapiens), Q13485 (parent)
# chain: B1 chain
# partner: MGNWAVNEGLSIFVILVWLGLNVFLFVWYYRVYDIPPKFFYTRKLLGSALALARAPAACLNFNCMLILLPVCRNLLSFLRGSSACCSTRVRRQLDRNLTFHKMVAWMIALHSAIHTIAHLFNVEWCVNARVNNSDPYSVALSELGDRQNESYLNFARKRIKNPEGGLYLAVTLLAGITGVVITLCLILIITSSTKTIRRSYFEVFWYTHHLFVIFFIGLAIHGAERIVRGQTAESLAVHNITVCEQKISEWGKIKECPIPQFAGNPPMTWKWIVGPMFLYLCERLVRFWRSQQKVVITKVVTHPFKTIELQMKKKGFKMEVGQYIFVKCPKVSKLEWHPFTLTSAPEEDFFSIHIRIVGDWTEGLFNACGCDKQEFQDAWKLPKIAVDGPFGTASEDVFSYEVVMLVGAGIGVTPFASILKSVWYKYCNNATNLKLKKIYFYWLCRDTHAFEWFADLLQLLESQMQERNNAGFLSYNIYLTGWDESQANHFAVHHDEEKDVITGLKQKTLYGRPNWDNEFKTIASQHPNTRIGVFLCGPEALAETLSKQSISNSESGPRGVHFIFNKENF
# B3: Mothers against decapentaplegic homolog 4 (Homo sapiens), Q13485 (parent)
# chain: B1 chain
# partner: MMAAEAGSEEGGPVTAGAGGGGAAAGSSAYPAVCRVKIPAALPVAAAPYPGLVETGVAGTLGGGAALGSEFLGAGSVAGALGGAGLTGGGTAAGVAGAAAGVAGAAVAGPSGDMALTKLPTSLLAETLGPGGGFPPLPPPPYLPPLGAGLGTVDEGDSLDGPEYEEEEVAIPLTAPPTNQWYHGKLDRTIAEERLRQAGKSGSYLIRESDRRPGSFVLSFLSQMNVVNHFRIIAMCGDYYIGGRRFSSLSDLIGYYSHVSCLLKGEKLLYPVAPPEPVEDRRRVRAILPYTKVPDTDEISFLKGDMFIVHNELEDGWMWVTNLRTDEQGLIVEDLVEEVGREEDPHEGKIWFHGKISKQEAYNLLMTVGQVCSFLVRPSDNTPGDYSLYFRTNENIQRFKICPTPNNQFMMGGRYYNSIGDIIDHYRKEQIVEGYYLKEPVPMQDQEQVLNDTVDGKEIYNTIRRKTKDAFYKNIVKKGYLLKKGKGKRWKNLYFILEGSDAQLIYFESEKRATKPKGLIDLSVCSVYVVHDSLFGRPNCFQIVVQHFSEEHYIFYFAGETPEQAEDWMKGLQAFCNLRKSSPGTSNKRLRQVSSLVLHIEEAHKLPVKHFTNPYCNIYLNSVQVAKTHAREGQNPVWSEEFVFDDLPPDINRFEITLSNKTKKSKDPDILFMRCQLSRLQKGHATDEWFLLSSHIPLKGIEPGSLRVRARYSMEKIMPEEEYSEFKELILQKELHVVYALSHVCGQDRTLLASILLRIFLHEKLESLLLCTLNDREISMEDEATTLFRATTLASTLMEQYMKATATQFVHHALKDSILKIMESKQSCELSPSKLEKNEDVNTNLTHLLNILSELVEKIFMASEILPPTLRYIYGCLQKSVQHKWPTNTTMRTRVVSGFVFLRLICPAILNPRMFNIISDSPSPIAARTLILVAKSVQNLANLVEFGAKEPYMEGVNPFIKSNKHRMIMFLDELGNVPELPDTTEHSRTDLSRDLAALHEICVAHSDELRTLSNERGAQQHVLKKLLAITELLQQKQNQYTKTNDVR
# B4: Mothers against decapentaplegic homolog 4 (Homo sapiens), Q13485 (parent)
# chain: B1 chain
# partner: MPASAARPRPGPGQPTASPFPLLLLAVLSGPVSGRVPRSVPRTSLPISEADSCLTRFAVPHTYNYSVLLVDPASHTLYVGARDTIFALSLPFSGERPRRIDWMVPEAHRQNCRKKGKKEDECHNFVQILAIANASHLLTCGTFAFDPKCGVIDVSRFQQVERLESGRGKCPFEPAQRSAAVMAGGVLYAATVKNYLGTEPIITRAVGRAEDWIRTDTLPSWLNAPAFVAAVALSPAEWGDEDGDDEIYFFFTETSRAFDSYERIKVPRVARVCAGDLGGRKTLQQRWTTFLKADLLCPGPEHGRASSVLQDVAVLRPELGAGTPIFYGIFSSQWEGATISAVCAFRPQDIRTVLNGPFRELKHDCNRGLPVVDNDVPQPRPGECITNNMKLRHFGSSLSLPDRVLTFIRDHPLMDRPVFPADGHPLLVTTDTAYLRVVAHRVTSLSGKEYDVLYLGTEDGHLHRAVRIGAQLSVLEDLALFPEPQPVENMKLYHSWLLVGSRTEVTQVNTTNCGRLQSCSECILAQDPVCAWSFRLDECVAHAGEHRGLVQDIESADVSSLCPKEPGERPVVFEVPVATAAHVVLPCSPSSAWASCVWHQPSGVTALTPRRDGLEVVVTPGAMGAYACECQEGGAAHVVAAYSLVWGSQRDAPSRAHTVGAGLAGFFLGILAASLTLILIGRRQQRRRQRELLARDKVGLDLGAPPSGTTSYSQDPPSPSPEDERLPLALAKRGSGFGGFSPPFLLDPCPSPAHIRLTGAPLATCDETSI
# Variants of: B1
# Settings: with rasf8_human RASSF8, Q8NHQ8
row,effect of a mutation on the interaction,Variant
1,with no effect,G386D

# Variants of: B1
# Settings: with rasf8_human RASSF8, Q8NHQ8
# Remark: another data set of the same source
row,effect of a mutation on the interaction,Variant
1,increasing interaction strength,G386D

# Variants of: B1
# Settings: with rasf8_human RASSF8, Q8NHQ8
# Remark: another data set of the same source
row,effect of a mutation on the interaction,Variant
1,with no effect,R361C

# Variants of: B1
# Settings: with rasf8_human RASSF8, Q8NHQ8
# Remark: another data set of the same source
row,effect of a mutation on the interaction,Variant
1,with no effect,R361H

# Variants of: B2
# Settings: with cy24b_human CYBB
row,effect of a mutation on the interaction,Variant
1,with no effect,R361H

# Variants of: B3
# Settings: with rasa1_human RASA1, P20936
row,effect of a mutation on the interaction,Variant
1,with no effect,R361H

# Variants of: B4
# Settings: with sem4f_human SEMA4F
row,effect of a mutation on the interaction,Variant
1,with no effect,R361C

# Variants of: B4
# Settings: with sem4f_human SEMA4F
# Remark: another data set of the same source
row,effect of a mutation on the interaction,Variant
1,with no effect,R361H
